Numbering of substitutions follows the chain as printed. Names may count otherwise. Square brackets hold non-standard residues; d marks the D form. Ends that are not written are not given here. * marks the point of attachment. Biotin = O=C1N[C@H]2[C@H](CS[C@H]2CCCCC(=O)*)N1; pS = N[C@@H](COP(=O)(O)O)C(=O)O
T1: endogenous BACH1 (full-length) of U2OS cells (Homo sapiens (Human), UniProt Q9BX63 1-1249)
T1 construct: Endogenous full-length protein in U2OS cell lysates, detected with a rabbit anti-BACH1 antibody; The phosphorylation state in the lysate was not measured; also called full-length BACH1; wild-type BACH1
T1 sequence: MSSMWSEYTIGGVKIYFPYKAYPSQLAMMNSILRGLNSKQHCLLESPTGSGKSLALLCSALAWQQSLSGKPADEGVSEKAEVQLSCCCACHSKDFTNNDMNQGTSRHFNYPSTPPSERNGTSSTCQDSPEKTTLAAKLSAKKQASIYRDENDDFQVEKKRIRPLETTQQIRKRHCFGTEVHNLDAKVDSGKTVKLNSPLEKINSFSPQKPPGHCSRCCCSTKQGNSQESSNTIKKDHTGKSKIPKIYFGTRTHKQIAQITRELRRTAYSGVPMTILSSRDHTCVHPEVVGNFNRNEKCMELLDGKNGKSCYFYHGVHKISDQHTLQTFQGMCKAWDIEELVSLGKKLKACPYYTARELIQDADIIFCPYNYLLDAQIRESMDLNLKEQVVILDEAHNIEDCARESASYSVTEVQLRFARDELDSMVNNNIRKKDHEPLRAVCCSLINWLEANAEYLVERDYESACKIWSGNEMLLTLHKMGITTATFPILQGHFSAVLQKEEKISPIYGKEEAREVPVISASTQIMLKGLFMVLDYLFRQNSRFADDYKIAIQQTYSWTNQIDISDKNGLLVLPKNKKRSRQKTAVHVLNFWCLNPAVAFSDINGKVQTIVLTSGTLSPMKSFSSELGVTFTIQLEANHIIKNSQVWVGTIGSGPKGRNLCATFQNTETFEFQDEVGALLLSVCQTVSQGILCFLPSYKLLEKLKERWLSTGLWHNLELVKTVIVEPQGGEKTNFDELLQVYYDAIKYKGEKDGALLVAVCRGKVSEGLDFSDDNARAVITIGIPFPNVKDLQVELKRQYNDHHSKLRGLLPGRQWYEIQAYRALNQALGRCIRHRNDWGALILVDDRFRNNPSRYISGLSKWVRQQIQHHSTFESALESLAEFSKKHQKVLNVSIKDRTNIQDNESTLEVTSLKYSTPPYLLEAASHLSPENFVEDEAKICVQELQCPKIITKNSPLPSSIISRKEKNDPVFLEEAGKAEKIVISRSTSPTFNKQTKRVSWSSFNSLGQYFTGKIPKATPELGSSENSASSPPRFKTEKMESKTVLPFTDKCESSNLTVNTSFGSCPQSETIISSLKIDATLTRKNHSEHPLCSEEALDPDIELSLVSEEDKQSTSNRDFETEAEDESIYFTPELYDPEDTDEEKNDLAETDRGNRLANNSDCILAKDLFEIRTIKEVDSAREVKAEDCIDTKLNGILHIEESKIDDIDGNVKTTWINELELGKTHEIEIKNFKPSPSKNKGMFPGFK

B1: myc-tagged BRCA1 tandem BRCT domain construct (residues 1313-1863) M1775R (other, not shown: small tags and cut ends)
chain: QDPFLIGSSKQMRHQSESQGVGLSDKELVSDDEERGTGLEENNQEEQSMDSNLGEAASGCESETSVSEDCSGLSSQSDILTTQQRDTMQHNLIKLQQEMAELEAVLEQHGSQPSNSYPSIISDSSALEDLRNPEQSTSEKAVLTSQKSSEYPISQNPEGLSADKFEVSADSSTSKNKEPGVERSSPSKCPSLDDRWYMHSCSGSLQNRNYPSQEELIKVVDVEEQQLEESGPHDLTETSYLPRQDLEGTPYLESGISLFSDDPESDPSEDRAPESARVGNIPSSTSALKVPQLKVAESAQSPAAAHTTDTAGYNAMEESVSREKPELTASTERVNKRMSMVVSGLTPEEFMLVYKFARKHHITLTNLITEETTHVVMKTDAEFVCERTLKYFLGIAGGKWVVSYFWVTQSIKERKMLNEHDFEVRGDVVNGRNHQGPKRARESQDRKIFRGLEICCYGPFTNRPTDQLEWMVQLCGASVVKELSSFTLGTGVHPIVVVQPDAWTEDNGFHAIGQMCEAPVVTREWVLDSVALYQCQELDTYLIPQIPHSHY
notes: also called M1775R cancer-associated mutant
B2: myc-tagged BRCA1 tandem BRCT domain construct (residues 1313-1863) P1749R (other, not shown: small tags and cut ends)
chain: B1 chain with P437R, R463M
B3: optimal tandem BRCT domain-interacting phosphopeptide YDIpSQVFPF (peptide)
peptide: Biotin-YDI[pS]QVFPF
notes: Found by oriented peptide library screening; Conjugated to streptavidin-coated beads; also called phosphorylated biotinylated peptide

Legend:
[1] = molecular target: T1, endogenous BACH1 (full-length) of U2OS …; test: co-immunoprecipitation from transfected U2OS cells (anti-myc IP, anti-BACH1 blot)
[2] = molecular target: myc-tagged BRCA1 tandem BRCT domain construct (residues 1313-1863) G1738E (human, UniProt P38398 1313-1863); test: pull-down of in vitro translated 35S-labelled protein on bead-immobilized peptide
Method: (§1) FIG. 3A is a schematic representation of protein-peptide contacts between a BRCA1 tandem BRCT domain and the BACH1 phosphopeptide. Hydrogen bonds, Van der Waals interactions and water molecules are denoted by dashed lines, crescents, and circles respectively. In FIG. 3B, the wild-type and mutant myc-tagged BRCA1 tandem BRCT domain constructs containing the indicated mutations were analysed for binding to a bead-immobilized optimal tandem BRCT domain-interacting phosphopeptide, YDIpSQVFPF, or its non-phosphorylated counterpart. […] In FIG. 3C, U2OS cells transfected with wild-type and mutant myc-tagged BRCA 1 tandem BRCT domain constructs were analysed for association with endogenous BACH1.
(§2) An optimal phosphopeptide for binding the BRCA1 BRCTs was determined by oriented peptide library screening as described previously. This peptide was synthesized in both its phosphorylated and non-phosphorylated form with a biotin group at the N-terminus using N-α-FMOC-protected amino acids and standard BOP/HOBt coupling chemistry. These peptides were conjugated to streptavidin coated beads (Sigma-Aldrich). […] The bead-immobilized peptides (10 μL of beads) were added to 10 μL of the in vitro translated [³⁵S]-labeled protein pool in 150 μL binding buffer (50 mM Tris-HCl (pH7.6), 150 mM NaCl, 0.5% NP-40, 1 mM EDTA, 2 mM DTT, 8 μg/mL pepstatin, 8 μg mL⁻¹ aprotinin, 8 μg mL⁻¹ leupeptin, 800 μM Na3VO4, 25 mM NaF).

[3] = molecular target: B1; test: as above
Method: as §1, §2

[4] = molecular target: T2, myc-tagged BRCA1 tandem BRCT domain construct (from residue 1313) Y1853X (human, UniProt P38398 1313-1852); test: as above
T2 construct: Stop at Tyr1853; also called Y1853X (truncates the last 11 residues)
Method: as §1, §2

[5] = molecular target: T3, myc-tagged BRCA1 tandem BRCT domain construct (residues 1313-1863) mutated at Ser1655 alone (human, UniProt P38398 1313-1863); test: as above
T3 construct: also called Ser1655 mutant; S1655A
Method: as §1, §2

[6] = molecular target: T4, myc-tagged BRCA1 tandem BRCT domain construct (residues 1313-1863) mutated at Lys1702 alone (human, UniProt P38398 1313-1863); test: as above
T4 construct: also called Lys1702 mutant; K1702M
Method: as §1, §2

[7] = molecular target: T5, myc-tagged BRCA1 tandem BRCT domain construct (residues 1313-1863) S1655A/K1702M (human, UniProt P38398 1313-1863); test: as above
T5 construct: also called K1702M/S1655A
Method: as §1, §2

[8] = molecular target: B2; test: as above
Method: as §1, §2

Measured: binding result

B1
no binding: [1]

B2
no binding: [1]

B3
no binding: [2] | [3] | [4] | [5] | [6] | [7] | [8]

Source: patent US20120295802A1 (published 2012)
